The target of this test is T1, polyphosphorylated full-length SARS-CoV-2 nucleocapsid protein pN.1-419 (SARS-CoV-2, UniProt P0DTC9 1-419).
T1 construct: also called phosphorylated N; polyphosphorylated N; not shown: His6, N-terminal, kept
Kind of test: SEC. The note with it: both partners purified.

B1: full-length human 14-3-3ε (as used in the SEC titration) (natural protein, UniProt P62258 1-255, looked up)
chain: MDDREDLVYQAKLAEQAERYDEMVESMKKVAGMDVELTVEERNLLSVAYKNVIGARRASWRIISSIEQKEENKGGEDKLKMIREYRQMVETELKLICCDILDVLDKHLIPAANTGESKVFYYKMKGDYHRYLAEFATGNDRKEAAENSLVAYKAASDIAMTELPPTHPIRLGLALNFSVFYYEILNSPDRACRLAKAAFDDAIAELDTLSEESYKDSTLIMQLLRDNLTLWTSDMQGDGEEQNKEALQDVEDENQ
notes: human 14-3-3 protein epsilon, full length; Same construct as m21 (TEV-cleavable His6-tag)
Turning to B1, binding was put at a Kd of 10.7 µM and the “stoichiometry N” value is ~1 14-3-3ε chains per pN.1-419 chain (2:2).

B2: untagged full-length human 14-3-3ζ (natural protein, UniProt P63104 1-245, looked up)
chain: MDKNELVQKAKLAEQAERYDDMAACMKSVTEQGAELSNEERNLLSVAYKNVVGARRSSWRVVSSIEQKTEGAEKKQQMAREYREKIETELRDICNDVLSLLEKFLIPNASQAESKVFYLKMKGDYYRYLAEVAAGDDKKGIVDQSQQAYQEAFEISKKEMQPTHPIRLGLALNFSVFYYEILNSPEKACSLAKTAFDEAIAELDTLSEESYKDSTLIMQLLRDNLTLWTSDTQGDEAEAGEGGEN
notes: human 14-3-3 protein zeta, full length, untagged; also called wild-type dimeric 14-3-3ζ
B2: the binding result is recorded as “binds”.

By Kd is commonly meant the free concentration of one partner at which half of the binding sites on the other are occupied at equilibrium, for simple one-to-one binding. Read a high Kd as lower affinity.
